According to the supplement of paper PMC12455559:
± gives the standard deviation of the averaged measurements.

Experiments:
[1] = purified protein yield per well (BCA); higher = higher soluble expression
In short: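 The measured quantity is purified protein yield per well, determined with the Pierce Rapid Gold BCA kit. Anything below 25 ug (0.1 mg/mL) lies under the detection threshold. Enzymes were expressed in E. coli C41(DE3) in 2 mL autoinduction cultures with 100 µg/mL kanamycin at 37 °C for 2 h, then 18 °C for 40 h, and purified on an OT-2 robot using Ni-charged magnetic beads and SUMO protease release.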

[2] = PET hydrolysis, aromatic products released after 48 h (umol product/mg enzyme); higher = more PET depolymerization activity
In short: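 Reactions ran in sealed plates without shaking for 48 h at 40 or 60 °C. Each held 3.5 mg amorphous PET film or crystalline PET powder, 450 μL buffer and 5 μg (50 μL) of tagless, SUMO-cleaved, nickel-purified candidate enzyme. Buffers were 50 mM NaCitrate at pH 4.5 or 5.5, 50 mM NaPhosphate at pH 6.5 or 7.5, and glycine at pH 8.5. The supernatant's aromatic product, read at 260 and 280 nm against buffer blanks, gives PET hydrolysis activity per mg enzyme.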

[3] = melting temperature (DSF); higher = more thermostable
In short: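 After expression in E. coli C41(DE3), the candidate enzymes were bound to nickel beads and released with SUMO protease. Their melting temperature was found by differential scanning fluorimetry with Sypro Orange on a Bio-Rad CFX96. Each sealed PCR plate well held 45 μL enzyme (0 to 0.3 mg/mL) plus 5 μL 5X dye, and fluorescence was read for 250 cycles from 25 °C at 0.3 °C per cycle (ramp 0.3 °C/s).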

[4] = substrate: cryPow, 40 °C, pH 5.5
[5] = substrate: cryPow, 40 °C, pH 6.5
[6] = substrate: cryPow, 40 °C, pH 7.5
[7] = substrate: cryPow, 60 °C, pH 5.5
[8] = substrate: cryPow, 60 °C, pH 6.5
[9] = substrate: cryPow, 60 °C, pH 7.5
[10] = substrate: aFilm, 40 °C, pH 4.5
[11] = substrate: aFilm, 40 °C, pH 5.5
[12] = substrate: aFilm, 40 °C, pH 6.5
[13] = substrate: aFilm, 40 °C, pH 7.5
[14] = substrate: aFilm, 60 °C, pH 4.5
[15] = substrate: aFilm, 60 °C, pH 5.5
[16] = substrate: aFilm, 60 °C, pH 6.5
[17] = substrate: aFilm, 60 °C, pH 7.5
[18] = substrate: cryPow, 40 °C, pH 4.5
[19] = substrate: cryPow, 60 °C, pH 4.5

| Sequence | purified protein yield per well [1] [µg] | PET hydrolysis [2, 4] | PET hydrolysis [2, 5] | PET hydrolysis [2, 6] | PET hydrolysis ([2]; substrate: cryPow, 40 °C, pH 8.5) | PET hydrolysis [2, 7] | PET hydrolysis [2, 8] | PET hydrolysis [2, 9] | PET hydrolysis ([2]; substrate: cryPow, 60 °C, pH 8.5) | melting temperature [3] [C] | PET hydrolysis [2, 10] | PET hydrolysis [2, 11] | PET hydrolysis [2, 12] | PET hydrolysis [2, 13] | PET hydrolysis [2, 14] | PET hydrolysis [2, 15] | PET hydrolysis [2, 16] | PET hydrolysis [2, 17] | PET hydrolysis [2, 18] | PET hydrolysis [2, 19] |
| --- | --- | --- | --- | --- | --- | --- | --- | --- | --- | --- | --- | --- | --- | --- | --- | --- | --- | --- | --- | --- |
| ADNPYQRGPDPTQSSVSASRGTFATAQVGVPAGNGFGGGVIYHPTDTSQGTFGAVAIVPGYTATWAAEGAWMGHWLASFGFVVIGIDTNNRNDWDTARGTQLLAALDYLTQRSSVRDRVDPSRTAVMGHSMGGGGAMYAALQRPSLKTAVGLAPFSPSQNLTTTRVPTMLLSGQNDTTTTPASIVNLYNGIPSSVEKAYLELTGAGHGFPTSNNSTMMRNVIPWLKIFVDSDTRYTQFLCPLSDSNGIRTYQNTCPLVPSPVPTTTSTTSSTSTTTTSTTTTTTTSVPVGACSATYRTTNAWSGGYQGEVTVAAGDSAVNGWTVRWTLDSGQTISQVWNGTLSATGSAVSVRNASYNGSLRPGTSTTFGFIAGGAPSTPVLSCTSP [DP072] | 89 | < 3 | 8 | 24 | 32 | < 3 | < 3 | < 3 | 3 | 58 | – | – | – | – | – | – | – | – | – | – |
| ADNPYQRGPDPTQSSVTAVNGPFANTSVSVPTGYGFNGGRIYYPTDTSQGTFGAIAISPGYTALFSAELAWMGPWLASHGFVVIGIETNSRNDFDTARGTQLLAALDYLTQQSPVRDRVDPTRLAVAGHSMGGGGALSAAMRRPSLKAVVGIAPYSPSSNLANDRVPTMILSGQADTVVTPSYATGLYNSLPSTTESVYLEVAGADHGFMVGRPNPVMVRTMLPFVKMFVDNDARYSQFLCPLLDSSGVVTYRSTCPLLPTTPTTPTPTTPGPTTPGPTPTVSPSVPPTSAGEIVGTQSGRCIDVPNASRNNGTRVQLYDCNRQTNQTWTYTSGKQLQVYGNMCLDAAGTGNGAAVQIYSCHSQTNQQWNINANGTISNVQSGRCLDAWSTANGAQIQLYDCHGQTNQQFRLVARA [ESM075] | 233 | 21 ± 1.4 | 23 ± 1.4 | 7 | – | 1.5 ± 2.1 | < 3 | < 3 | – | 62.2 | < 3 | 4 | < 3 | < 3 | < 3 | < 3 | < 3 | < 3 | 12.5 ± 2.1 | < 3 |
| ADNPYQRGPDPTRASVAAENGPFANTSVSAPTGYGFNGGRIYYPTDTSQGTFGAIAISPGYTALFSAELAWMGPWLASHGFVVIGIETNSRNDFDTARGTQLLAALDYLTQQSPVRDRIDPNRLAVSGHSMGGGGALSAAMRRSSLKAVVGITPYSPSSNLANVQVPAMVISGQADTVVTPSYALGLYNSLPASTESAYLEVAGGDHGFMVGRSNPVLIRTMLPFVKMFVDNDARYSQFLCPLLDNSGVVTYRSTCPLLPPPTATPTPTGTPTPTPTPTVSPTTPPNSANRIVGVQSGRCIDVPNASRDNGTRVQLYDCHGQSNQSWTYTASKQLRVYGDMCLDAGGSGNGAGIQIYSCHSQTNQQWNVNSNGTISGVQSGRCLDVWSTSNGAQVQLYDCHGQTNQQFNLVPLT [TEP167] | 180 | < 3 | < 3 | < 3 | – | < 3 | < 3 | < 3 | – | 57.1 | – | – | – | – | – | – | – | – | < 3 | < 3 |
| ADNPYQRGPDPTRASVAAVNGPFANTSVSVPTGYGFNGGRIYYPTDTSQGTFGAIAISPGYTALFSAELAWMGPWLASHGFVVIGIETNSRNDFDTARGTQLLAALDYLTQQSPVRDRVDPNRLAVSGHSMGGGGALSAAIRRSSLKAAVGITPYSPSQNLANDRVPTMVISGQADTVVTPSYALNLYNSLPASTESVYLEVAGGDHGFMVGRSNPVLIRTMLPFLKMFVDNDSRYSQFLCPLLDSSGVVTYRSTCPLLPTDPTTPPTGSPTPTPTTPPPSGSANEIIGTQSGRCVDVPNASRNNGTRVQLYDCNKQTNQSWTYTSNRQLRVYDNMCLDAAGSGNGAAIQIYTCHSGTNQQWNVNSNGTITGVQSGRCLDVWSSNNGAQIQLYDCHGQPNQQFRLAPLA [TEP010] | 269 | 24 | 41 ± 1.4 | 27 ± 4.2 | – | 6 ± 1.4 | 5 ± 1.4 | 2 ± 2.8 | – | 62.8 | < 3 | < 3 | < 3 | < 3 | < 3 | < 3 | < 3 | < 3 | 13.5 ± 2.1 | < 3 |
| ADNPYQRGPDPTRASVAAVNGPFVNTSVSVPTGYGFNGGRIYYPTDTSQGTFGAIAISPGYTALFSAELAWMGPWLASHGFVVIGIETNSRNDFDTARGTQLLAALDYLTQQSPVRDRVDPNRLAVSGHSMGGGGALSAAIRRSSLKAAVGITPYSPSQNLANDRVPTMVISGQADTVVTPSYALGLYNSLPASTESVYLEVAGGDHGFMVGRSNPVLIRTMLPFLKMFVDNDSRYSQFLCPLLDSSGVVTYRSTCPLLPTNPTTPPPTGTPTPTPTSTPTPTPTPTTPPPSGSANE [ESM091] | 336 | 28 ± 1.4 | 10 | < 3 | – | < 3 | < 3 | < 3 | – | 62.5 | < 3 | < 3 | < 3 | < 3 | < 3 | < 3 | < 3 | < 3 | 13.5 ± 0.71 | < 3 |
| ADNPYQRGPDPTRASVASENGPFANTSVAVPTGYGFNGGRIYYPTDTSQGTFGAIAISPGYTALFSVELAWMGPWLASHGFVVIGIETNSRNDFDTARGTQLLAALDYLTQQSPVRDRVDSSRLAVAGHSMGGGGALSAAMRRSSLKAAVGIAPYSPSSNLATDRVPTMVFSGQADTVVTPSYATGLYNSLPSTTESAYLEVAGADHGFMVGRSNPVLIRTMLPFLKIFIDNDARYSQFLCPLLDTSGVVTYRSTCPLLPTPPTSPTATPTTTPTGPSPTSPPGAASQLVGAQSGRCVDVPNASRANGTRVQLWDCNRQSNQSWTYTSTKQLRVYGDMCLDAAGTGNGAAVQIYGCHGQANQQWNVNSNGTVSNVQSGRCLDVWSTANGAQIQLYDCHGQTNQRFNLTPLA [TEP111] | 245 | 17 | 15.5 ± 9.2 | 8.5 ± 12 | – | 5 | 4.5 ± 0.71 | < 3 | – | 63.1 | < 3 | < 3 | < 3 | < 3 | < 3 | < 3 | < 3 | < 3 | 13 ± 1.4 | < 3 |
| ADNPYQRGPDPTRNSVAAENGPFANTSVSVPSGNGFNGGRIYYPTDTSQGTFGAIAISPGYTALFSAELAWMGPWLASHGFVVIGIETNSRNDFDTARGTQLLAALDYLTQQSTVRNRVDPNRLAVAGHSMGGGGALSAAMRRPSLKAVAGITPYSPSSNLANDRVPTMIISGQADTVVTPSYALGLYNSIPATTESVYLEVAGGDHGFMVGRSNPVLIRTMLPFLKTFVDNDARYTQFLCPLVDNSGVVTYRNTCPLLPPPTGTPTPTPTTPGPTTPPPTTPPPGSASEIVGTQSGRCVDVPNSSRTNGTRVQLYDCNRQTNQTWTYNTSTKQLRVYGDMCLDAAGTGNSAAVQIYACHSQTNQQWNINTNGTISGVQSGRCLDAWNTTNGAQIQLYDCHGQTNQQFRLAAR [TEP115] | 113 | 8 | 7 | 3 | – | < 3 | < 3 | < 3 | – | 60.4 | – | – | – | – | – | – | – | – | 4 | < 3 |
| ADNPYQRGPDPTRSSVAAVNGPFANTSVAVPTGYGFNGGRIYYPTDTSQGTFGAIAISPGYTALFSVELAWMGPWLASHGFVVIGIETNSRNDFDTARGTQLLAALDYLTQQSPVRDRVDPNRLAVSGHSMGGGGALSAAIRRSSLKAVVGIAPYSPSSNLANDRVPTMVFAGQADTVVTPSYATGLYNSLPATTESAYLEVAGADHGFMVGRSNPVLIRTMLPFLKMFVDNDARYSQFLCPLADNSGVVSYRSTCPLLPTTPTTPPPTPSDTPPPTPSGTPTTPPTTGPPGTASLVVGAQSGRCLDVPNASRANGTRVQLWDCNRQANQQWTYTSTRQLRVYGDMCLDAAGSGNGAAVQIYGCHGQPNQQWTVNANGTISGVQSGRCLDVWSTANGAQVQLYDCHGQTNQRFTLTPVA [ESM080] | 56.6 | 18 | 9 | 4 | – | – | – | – | – | 61.6 | – | – | – | – | – | – | – | – | 9 | – |
| ADNPYQRGPDPTRSSVAAVNGPFANTSVAVPTGYGFNGGRIYYPTDTSQGTFGAVAISPGYTALFSVELAWMGPWLASHGFVVIGIETNSRNDFDTARGTQLLAALDYLVQQSPVRDRIDPNRLAVSGHSMGGGGALSAALRRPALKAAVGIAPYSPSSNLANDRVPTMVFAGQADTVVTPSYATGLYNSLPTTTESAYLEVAGADHGFMVGRSNPVLIRTMLPFLKMFVDNDARYSQFLCPLADNSGVVSYRSTCPLLPPTSTTPPPIPSDTPPPIPTTPPQTTPPPSNPPGAASLIVGAQSNRCLDVPNASRANGTRVQLWDCNRGTNQSWTYTTNKQLRVYGDMCLDAAGSGNGAAVQIYGCHSQTNQQWNVNANGTISSVQSGRCLDVWSTANGAQVQLYDCHGQTNQRFTLTPLT [ESM101] | 149 | 19 | 8 | 4 | – | < 3 | < 3 | < 3 | – | 58.6 | – | – | – | – | – | – | – | – | 7 | < 3 |
| ADNPYQRGPDPTRTSVAAVNGPFANTSVSVPTGYGFNGGRIYYPTDTSQGTFGAIAISPGYTALFSAELAWMGPWLASHGFVVIGIETNSRNDFDTARGTQLLAALDYLTQQSPVRDRVDPNRLAVSGHSMGGGGALSAAIRRSSLKAVVGIAPYSPSSNLANDRVPTMIFSGQADTVVTPSYATGLYNSLPATTESVYLEVAGADHGFMVGRSNPVMIRTMLPFVKMFIDNDTRYSQFLCPLLDSSGVVTYRSTCPLLPPAPTTPPPTGTPTPTPSSNPTTPPTTPPSTPTA [ESM061] | 408 | 23 ± 1.4 | 5 | < 3 | – | < 3 | < 3 | < 3 | – | 62.8 | < 3 | < 3 | < 3 | < 3 | < 3 | < 3 | < 3 | < 3 | 11 ± 2.8 | < 3 |
